The results in this text go back to patent publication US20150175666A1 (YEDA RESEARCH AND DEVELOPMENT, published 2015).

Ends that are not written are not given here. * marks the point of attachment. NBD = O=[N+]([O-])c1ccc(*)c2nonc12

Assay [1] addresses T1, TCR of MOG35-55-specific murine line T cells (mMOG35-55 T cells) (mouse, UniProt A2KF29). Description: cell-based or functional assay.
For assay [2], the target named is T1, TCR of MOG35-55-specific murine line T …. The assay can be described thus: cell-based or functional assay. This is another data set of the same source.
Assay [3] has as its target T2, NBD-labeled core peptide of the TCRα TMD (GLRILLLKV; SEQ ID NO: 14).
T2 construct: also called NBD-CP; CP
T2 peptide: {NBD}-GLRILLLKV
The assay can be described thus: NBD fluorescence of NBD-CP on PC:Chol LUVs, sequential doses of unlabeled peptide.

T1 sequence (A2KF29 whole entry): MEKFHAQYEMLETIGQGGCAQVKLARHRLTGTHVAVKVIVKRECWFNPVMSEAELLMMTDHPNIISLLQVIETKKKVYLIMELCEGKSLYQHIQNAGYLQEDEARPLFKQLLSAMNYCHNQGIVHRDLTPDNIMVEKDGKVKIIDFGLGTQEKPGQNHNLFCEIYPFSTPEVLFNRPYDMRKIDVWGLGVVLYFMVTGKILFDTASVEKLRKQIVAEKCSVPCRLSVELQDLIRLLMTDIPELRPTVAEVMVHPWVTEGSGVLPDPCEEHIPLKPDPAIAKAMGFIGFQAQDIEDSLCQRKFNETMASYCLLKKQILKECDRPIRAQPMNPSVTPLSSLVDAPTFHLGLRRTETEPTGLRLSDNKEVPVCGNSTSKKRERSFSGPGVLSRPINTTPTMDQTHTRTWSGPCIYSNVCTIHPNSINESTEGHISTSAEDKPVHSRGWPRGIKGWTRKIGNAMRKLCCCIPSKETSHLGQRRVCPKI

Take SNKSLEQIWNHTTWMEWD [pep 6 (SNKSLEQIWNHTTWMEWD), gp41 derived peptide, unlabeled]: the “IC50 (µM), inhibition of MOG35-55-specific T-cell proliferation” value in assay [1] was 0.55 µM. Moreover, the “inhibitory concentration at 50% proliferation (IC50), MOG35-55-specific T-cell proliferation” value in assay [2] was 1000 nM. Moreover, the binding result in assay [3] was “binds”.

B1: control mutant peptide (SNKSLEQIWNHTTWMGWG, SEQ ID NO: 10), unlabeled (peptide)
peptide: SNKSLEQIWNHTTWMGWG
notes: pep 6 with the conserved acidic residues (Glu and Asp) mutated to Gly
With B1, the binding result in assay [3] is given as “binds”.

B2: control mutant (W/G) peptide (SNKSLEQIGNHTTGMEGD, SEQ ID NO: 9), unlabeled (peptide)
peptide: SNKSLEQIGNHTTGMEGD
notes: Unlabeled form used in the NBD-CP fluorescence experiment
Regarding B2, the binding result in assay [3] is “binds”.
